From patent publication US7053264B2, “Nuclear reprogramming using IWSI and related chromatin remodeling ATPases” (Sangamo Biosciences, Inc., priority 2000, dated 2006)
Residue numbers refer to the chain shown, from its start.

B1: rISWI: recombinant Drosophila ISWI produced in E. coli (protein, UniProt Q24368 1-1027, looked up)
Chromatin-remodeling complex …: MSKTDTAAVEATEENSNETTSDAATSSSGEKEAEFDNKIEADRSRRFDFLLKQTEIFTHFMTNSAKSPTKPKGRPKKIKDKDKEKDVADHRHRKTEQEEDEELLAEDSATKEIFRFDASPAYIKSGEMRDYQIRGLNWMISLYENGINGILADEMGLGKTLQTISLLGYLKHFKNQAGPHIVIVPKSTLQNWVNEFKKWCPSLRAVCLIGDQDTRNTFIRDVLMPGEWDVCVTSYEMCIREKSVFKKFNWRYLVIDEAHRIKNEKSKLSEILREFKTANRLLITGTPLQNNLHELWALLNFLLPDVFNSSEDFDEWFNTNTCLGDDALITRLHAVLKPFLLRRLKAEVEKRLKPKKEMKIFVGLSKMQRDWYTKVLLKDIDVVNGAGKVEKMRLQNILMQLRKCTNHPYLFDGAEPGPPYTTDTHLVYNSGKMAILDKLLPKLQEQGSRVLIFSQMTRMLDILEDYCHWRNYNYCRLDGQTPHEDRNRQIQEFNMDNSAKFLFMLSTRAGGLGINLATADVVIIYDSDWNPQMDLQAMDRAHRIGQKKQVRVFRLITESTVEEKIVERAEVKLRLDKMVIQGGRLVDNRSNQLNKDEMLNIIRFGANQVFSSKETDITDEDIDVILERGEAKTAEQKAALDSLGESSLRTFTMDTNGEAGTSSVYQFEGEDWREKQKLNALGNWIEPPKRERKANYAVDAYFREALRVSEPKAPKAPRPPKQPIVQDFQFFPPRLFELLDQEIYYFRKTVGYKVPKNTELGSDATKVQREEQRKIDEAEPLTEEEIQEKENLLSQGFTAWTKRDFNQFIKANEKYGRDDIDNIAKDVEGKTPEEVIEYNAVFWERCTELQDIERIMGQIERGEGKIQRRLSIKKALDQKMSRYRAPFHQLRLQYGNNKGKNYTEIEDRFLVCMLHKLGFDKENVYEELRAAIRASPQFRFDWFIKSRTALELQRRCNTLITLIERENIELEEKERAEKKKKAPKGSVSAGSGSASSNTPAPAPQPKASQKRKSEVVATSSNSKKKKK
B2: mutant of rISWI: rISWI in which lysine 159 in the adenine nucleotide binding domain was replaced with arginine; negative control (protein, UniProt Q24368 1-1027, looked up, variant K159R)
Chromatin-remodeling complex …: B1 Chromatin-remodeling complex … with K159R

Columns and labels:
[1] = tested on: nuclei of Xenopus XTC-2 cells; experiment: Biochemical complementation assay: release of TBP from nuclei by purified proteins combined with SP Sepharose flow through (FT); settings: for reconstitution of release of TBP from nuclei: combined with SP Sepharose FT in the presence of ERS, FIG. 4D
Method: (§1) “Extract” refers to unfractionated egg extract. […] The gel was stained with Coomassie Blue. FIG. 4C depicts ATPase activity of ISWI-D and rISWI. ATPase activity was determined in the presence of buffer (−), DNA (D), or nucleosomes (N). The arrowhead indicates the free phosphate generated by ATP hydrolysis. FIG. 4D depicts biochemical complementation assays for activities capable of removing TBP from the nucleus. Egg extract (Ext), SP Sepharose flow through (FT), and FT complemented with various purified proteins at indicated concentrations were compared for remodeling activity by monitoring residual TBP in the nuclear pellet after incubation of nuclei in an egg extract. All lanes included ERS except lanes 7 and 8, which contained apyrase. Np indicates nucleoplasmin.
(§2) The ISWI-D complex was purified from Xenopus egg extract (FIG. 4A), and shown to contain two subunits: p195 and ISWI (FIG. 4B). For the purification, egg extract was fractionated through BioRex 70 (Bio-Rad, Hercules, Calif.) and MonoQ (Amersham Pharmacia, Piscataway, N.J.) essentially as described in Wade et al. (1998) Curr Biol 8:843–846. The MonoQ ISWI-D peak (eluting at approximately 0.45 M NaCl) was further purified by gradient elution on MonoS (linear gradient from 0.1 to 0.5 M NaCl in Buffer A) as described in Wade et al., supra. ISWI-D was eluted at approximately 0.3 M NaCl. Drosophila rISWI was produced in E. coli and purified by IMPACT T7 system (New England Biolabs, Beverly, Mass.) and Superdex 200 gel filtration column (Amersham Pharmacia). ATPase activity was tested as described in Corona et al, supra.
Either ISWI-D complex or rISWI were essential for release of TBP from nuclei. The endogenous activity in the extract responsible for the release of TBP from chromatin was depleted by applying the extract to SP Sepharose, and restored by combining the SP Sepharaose flow through (FT) and the 0.5 M NaCl eluate from BioRex 70 that contained ISWI (FIG. 4D, lanes 2 and 3). FT was prepared from SP Sepharose (Amersham Pharmacia) by equilibrating the resin with Buffer A and briefly centrifuging to deplete the buffer. The egg extract was incubated with the equilibrated resin for 30 minutes in a cold room and briefly centrifuged to collect FT. […] Release of TBP from nuclei by ISWI plus FT was also confirmed by immunofluorescence.
Three other proteins known to modify protein-DNA interactions (TAF172, the Mi-2 complex and nucleoplasmin) were also tested in this biochemical complementation assay. Recombinant human TAF172 was prepared in a baculovirus expression system (see Chicca et al. (1998) Mol Cell Biol 18:1701–1710), while the Mi-2 complex and nucleoplasmin were isolated from Xenopus egg extracts. TAF 172, the human homologue of yeast Mot1, also belongs to the SWI2/SNF2 superfamily and removes TBP from DNA in vitro (Auble et al. (1994) Genes Dev 8:1920–1934; Chicca et al., supra). The Xenopus Mi-2 complex contains Mi-2, also a member of the SWI2/SNF2 superfamily, in addition to five other subunits and remodels chromatin (Wade et al (1998) Curr Biol 8:843–846; Guschin et al. (2000) Biochem 39:5238–5245). Nucleoplasmin remodels sperm chromatin upon fertilization (Dimitrov et al., supra; Philpott et al. (2000) Cell 69:759767). […] Higher concentrations of these proteins were also tested, with similar results.

[2] = tested on: nuclei of Xenopus XTC-2 cells; experiment: Nuclear remodeling assay: permeabilized somatic nuclei incubated in Xenopus egg S phase extract, TBP in nuclear pellet by immunoblot; format: biochemical; settings: agent added to nuclear remodeling reaction in egg extract; immunoblot FIG. 1A
Method: To simplify nuclear remodeling assays by eliminating nuclear transport steps, both the plasma membrane and nuclear envelope of Xenopus XTC-2 cells (henceforth called nuclei) were permeabilized with a detergent, essentially as described in Adam et al. (1992) Methods Enzymol. […] Xenopus XTC-2 cells were permeabilized with 30 μg/ml digitonin for three minutes using the LL-Bsa method (Gurdon (1976) J. Embryol. Exp. Morphol. 36:5235407) replacing lysolecithin (which caused tight aggregation of nuclei) by digitonin. […] The permeability of the nuclear envelope was monitored by the passive entry of fluorescence-labeled immunoglobulin G (150k Da) into the nuclei (Newmeyer et al. (1986) J Cell Biol 103:2091–2102). […]
After incubation for two hours at room temperature 100 μl of Buffer B (10 mM HEPES pH 7.8, 75 mM KCl, 4 mM magnesium chloride, 250 mM sucrose, 0.5 mM spermidine trihydrochloride, 0.15 mM spermine tetrahydrochloride, 1 mM dithiothreitol, 10 mM β-glycerophosphate, 1 μg/ml leupeptin, 2 μg/ml pepstatin A, 100 μM 4-(2-aminoethyl)-benzenesulfonyl fluoride, AEBSF) was added and the reaction mix was centrifuged at 15,000× g for 10 min. The pellet, called remodeled nuclei, was analyzed by immunoblotting using SuperSignal West Dura (Pierce, Rockford, Ill.) as a substrate of horseradish peroxidase.

[3] = tested on: nuclear matrix; experiment: Release of TBP from purified nuclear matrix, immunoblot; format: biochemical, Xenopus; settings: presence of ERS; ISWI-D or rISWI added to the FT fraction; FIG. 5
Method: Analysis of histone H2B is shown as a control. Nuclear matrix was prepared as described in the Examples, and nuclear matrix proteins were separated by gel electorphoresis. Each lane contained matrix from 4×10^5 nuclei. The gel was blotted, and the blots were analyzed with antibodies to TBP or H2B. Nuclei were incubated with egg extract (lanes 2 and 3) or various combinations of proteins and protein fractions (lanes 4–8) prior to preparation of nuclear matrix. Analysis of a preparation of nuclear matrix from nuclei that were not incubated with extract or proteins is shown in lane 1. Presence or absence of an ERS in the incubation is indicated by “+” and “−,” respectively.
To understand the mechanism of the release of TBP further, nuclear matrix was prepared from the nuclei that had not been incubated in the egg extract, by using 0.5% Triton X-100, DNase I, 250 mM ammonium sulfate, and 2M NaCl. The nuclear matrix was prepared essentially as described D. L. Spector and D. Goldman, L. L. A, in Cells, A Laboratory Manual. (Cold Spring Harbor Laboratory Press, New York, 1997) pp. 44.1–44.8. […]
The purified nuclear matrix was incubated in the egg extract and its composition was analyzed by immunoblotting.

[4] = tested on: nucleosomes; experiment: ATPase activity in the presence of buffer, DNA or nucleosomes; format: biochemical; settings: FIG. 4C
Method: as §1
as §2, with “Drosophila rISWI was produced in E. coli and purified by IMPACT T7 system (New England Biolabs, Beverly, Mass.) and Superdex 200 gel filtration column (Amersham Pharmacia). ATPase activity was tested as described in Corona et al, supra.” left out

Molecule | reconstitution of release of TBP from nuclei [1] | effect on exclusion (loss) of TBP from nuclei in egg extract [2] | also measured
TAF172: recombinant human TAF172, homologue of yeast Mot1, prepared in a baculovirus expression system | None of these proteins proved capable of reconstituting TBP removal activity |  | 
aphidicholin |  | neither aphidicholin nor arabinosylcytosine (both inhibitors of DNA replication) inhibited the loss of TBP | 
apyrase |  | exclusion was inhibited | 
nucleoplasmin: molecular chaperone isolated from Xenopus egg extracts; remodels sperm chromatin | None of these proteins proved capable of reconstituting TBP removal activity |  | 
B1 | competent to reconstitute release of TBP from nuclei |  | release of TBP from the nuclear matrix [3]: resulted in release of TBP; release of TBP from nuclei in combination with nucleoplasmin ([1]; nucleoplasmin substituted for the FT fraction): incapable of releasing TBP from nuclei; release of TBP from nuclei in the absence of FT ([1]; without FT fraction): Neither the ISWI-D complex nor rISWI could release TBP from nuclei
B2 | not competent to reconstitute release of TBP from nuclei |  | nucleosomal ATPase activity [4]: lacked nucleosomal ATPase activity
